Laboratory results as given in doi:10.1101/2020.12.02.408153 (bioRxiv, 2020).

Target: SARS-CoV-2 open reading frame (ORF) 8 (SARS-CoV-2, UniProt P0DTC8 16-121)
Test: SPR

Sequence of SARS-CoV-2 open reading frame (ORF) 8 (P0DTC8 16-121): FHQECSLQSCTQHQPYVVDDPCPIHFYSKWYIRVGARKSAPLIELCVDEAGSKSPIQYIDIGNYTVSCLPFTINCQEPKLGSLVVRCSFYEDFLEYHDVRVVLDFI

LLGDFFRKSKEKIGKEFKRIVQRIKDFLRNLVPRTES [LL-37]
Kd: 290 nM
